Measurements: patent publication US7018836B1, “P-TEFb compositions, methods and screening assays” (priority 1996, dated 2006)

B1: DBS: Drosophila P-TEFb small subunit, HIS-tagged recombinant (protein)
chain: MAHMSHMLQQPSGSTPSNVGSSSSRTMSLMEKQKYIEDYDFPYCDESNKYEKVAKIGQGTFGEVFKAREKKGNKKFVAMKKVLMDNEKEGFPITALREIRILQLLKHENVVNLIEICRTKATATNGYRSTFYLVFDFCEHDLAGLLSNMNVKFSLGEIKKVMQQLLNGLYYIHSNKILHRDMKAANVLITKHGILKLADFGLARAFSIPKNESKNRYTNRVVTLWYRPPELLLGDRNYGPPVDMWGAGCIMAEMWTRSPIMQGNTEQQQLTFISQLCGSFTPDVWPGVEELELYKSIELPKNQKRRVKERLRPYVKDQTGCDLLDKLLTLDPKKRIDADTALNHDFFWTDPMPSDLSKMLSQHLQSMFEYLAQPRRSNQMRNYHQQLTTMNQKPQDNSMIDRVW
modifications: left off: small tags and cut ends
notes: Drosophila P-TEFb small subunit, HIS-tagged recombinant
B2: Tat: 86 residue HIV-1 Tat followed by a streptavidin binding tag at its carboxyl terminus (protein)
chain: MEPVDPRLEPWKHPGSQPKTACTNCYCKKCCFHCQVCFITKALGISYGRKKRRQRRRAHQNSQTHQASLSKQPTSQPRGDPTGPKE
modifications: left off: large carriers

Legend:
RNA polymerase II = experiment: Kinase assay of recombinant P-TEFb subunits with RNA polymerase II as substrate (Table 1); type: biochemical, Drosophila; settings: RNA polymerase II as substrate
Experimental: 0.4 μl of purified RNA polymerase II and various protein samples were mixed in 18 μl of 55 mM HMK. The reaction was then initiated by the addition of 2 μl of a solution containing 2 μCi of [γ-^32P]ATP (ICN) and unlabeled ATP at 10 μM, or only unlabeled ATP at concentrations from 1 to 100 μM or other NTPs or dNTPs at concentrations of 1 to 100 μM. Reactions were incubated for the indicated times at 23° C. and then terminated with SDS loading buffer. Samples were analyzed on a 6–15% SDS polyacrylamide gel which was silver stained, dried and subjected to autoradiography if the assay contained label.
Using the CTD Kinase assay, as previously described in Example 2, Section A.7, both HBL1-1 (SEQ ID NO:45), HBL2(SEQ ID NO:47) and HBL3 (SEQ ID NO:50) were substituted for the large subunit in the Drosophila transcription system. Alone “PITARLE” has little kinase activity and no detectable activity in transcription.

[1] = system: transcription in Drosophila extract depleted of P-TEFb; experiment: Transcription activity of recombinant protein added into Drosophila extract depleted of P-TEFb (Table 1); type: biochemical
[2] = system: transcription from HIV-1 LTR; experiment: In vitro Tat transactivation in HNE with TAR and DTAR templates (FIG. 8); type: biochemical, human
Experimental: The transcription template (Nco I-digested pLTR-4/CAT vector containing the HIV-1 LTR from −153 to +80) was used in a pulse-chase transcription experiment. Reactions (12 μl total; 20 mM HEPES, pH 7.6, 7 mM MgCl2, 20 μg/ml DNA template, 3 μl HNE, 64 mM KCl, with 50 μM DRB or 0.3 μl Drosophila P-TEFb (Marshall et al., 1996) as indicated) were pre-incubated for 20 minutes at 30° C., pulsed for 2 minutes by adding ATP, GTP, UTP to 600 μM each and 5 μCi [α-^32P]CTP (˜0.1 mM), and chased for 5 minutes by adding CTP to 1.2 mM. Reactions were stopped, phenol extracted and analyzed on a 6% polyacrylamide gel as described (Marshall and Price, 1995). pLTR-TAR-Luc and pLTR-DTAR-Luc plasmids were digested with Eco RI to generate TAR and DTAR template that were used in the studies. The TAR template contains HIV-1 LTR from −475 to +76, while the DTAR template contains HIV-1 LTR from −475 to +19. Transcription with TAR and DTAR templates generates runoffs of 694 and 646 nucleotides, respectively. The transcription reaction mix contained 20 mM HEPES (pH7.6), 7 mM MgCl2, 60 mM KCl, 0.5 μl HNE (or depHNE as indicated), 20 μg/ml TAR template (or DTAR template as indicated), indicated amount of HIV-1 Tat (86 residue HIV-1 Tat followed by a streptavidin binding tag at its carboxyl terminus) and DRB. The reaction mix was pre-incubated for 15 minutes at 30° C. and the transcription was started by adding nucleotides to final concentrations of 50 μM ATP, 50 μM GTP, 50 μM UTP, 10 μM CTP, and 5 μCi [α-^32P]CTP (˜0.1 mM), and continuously labeled for 20 minutes, or by adding nucleotides to final concentrations of 50 μM ATP, 50 μM GTP, 50 μM UTP, and 5 μCi [α-^32P]CTP (˜0.1 mM), and pulsed for 2 minutes. The reactions were stopped and reaction mix were phenol-extracted. The transcripts were then analyzed on a 6% polyacrylamide gel as described (Marshall and Price, 1995).

Row | Molecule | Kinase activity (RNA polymerase II) | Transcription activity [1] | stimulation of generation of runoff ([2]; HNE not depleted, TAR template, continuous labeling, 10 ng/μl Tat) | increase of runoff in presence of 50 μM DRB, DTAR template or absence of human P-TEFb ([2]; continuous labeling) | increase of transcription initiation (short pulsed transcripts) ([2]; pulse-only protocol, 10 ng/μl Tat)
1 | B1 | very little | none |  |  | 
2 | B2 |  |  | about 12 fold | about two | about two
